This note sets out measurements from article PMC4176187.

The assay deals with 40S ribosomal subunits purified from rabbit reticulocyte lysate (rabbit) (UniProt G1U0Q2). Put plainly: protein transfer assay.

Substance “human recombinant SRP9/14 protein heterodimer, wild type (from UniProt P49458 1-86; P37108 1-136) (complex)” came in with a percent of the protein transferred from scAlu RNA to 40S of 41%. The value for “human recombinant SRP9/14A5 (basic pentapeptide K96-K100 of SRP14 mutated) (from UniProt P49458 1-86; P37108 1-136) (complex)” was 16%.
